Experimental data reported in patent publication US20240360474 (Scribe Therapeutics Inc., published 2024).

T1: CasX 2 (reference CasX) (Planctomycetes)
T1 chain: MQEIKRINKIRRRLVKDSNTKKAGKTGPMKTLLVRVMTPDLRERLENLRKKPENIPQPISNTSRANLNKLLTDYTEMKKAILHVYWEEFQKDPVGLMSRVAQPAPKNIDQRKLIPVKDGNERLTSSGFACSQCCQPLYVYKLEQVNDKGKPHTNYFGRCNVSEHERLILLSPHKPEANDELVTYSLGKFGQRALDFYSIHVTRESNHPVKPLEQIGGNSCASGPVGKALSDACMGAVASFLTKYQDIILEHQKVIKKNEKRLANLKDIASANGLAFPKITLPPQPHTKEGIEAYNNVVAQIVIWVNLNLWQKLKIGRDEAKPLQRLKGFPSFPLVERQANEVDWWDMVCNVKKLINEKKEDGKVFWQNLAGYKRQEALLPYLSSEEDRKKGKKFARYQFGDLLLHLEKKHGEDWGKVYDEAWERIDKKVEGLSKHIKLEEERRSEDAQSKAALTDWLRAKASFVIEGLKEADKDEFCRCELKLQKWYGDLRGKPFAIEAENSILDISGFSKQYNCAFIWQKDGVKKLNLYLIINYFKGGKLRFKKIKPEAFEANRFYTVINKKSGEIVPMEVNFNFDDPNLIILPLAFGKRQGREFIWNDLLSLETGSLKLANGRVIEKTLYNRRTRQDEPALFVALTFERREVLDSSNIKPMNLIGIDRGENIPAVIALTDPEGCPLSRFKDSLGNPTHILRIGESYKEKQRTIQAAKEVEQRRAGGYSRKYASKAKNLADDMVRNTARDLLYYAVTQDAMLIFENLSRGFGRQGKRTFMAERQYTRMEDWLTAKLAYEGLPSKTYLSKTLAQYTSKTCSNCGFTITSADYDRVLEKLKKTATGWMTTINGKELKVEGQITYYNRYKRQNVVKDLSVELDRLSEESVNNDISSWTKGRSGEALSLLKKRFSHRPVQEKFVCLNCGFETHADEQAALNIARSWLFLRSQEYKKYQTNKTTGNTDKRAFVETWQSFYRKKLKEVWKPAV

T2: CasX variant 438 (synthetic construct)
T2 chain: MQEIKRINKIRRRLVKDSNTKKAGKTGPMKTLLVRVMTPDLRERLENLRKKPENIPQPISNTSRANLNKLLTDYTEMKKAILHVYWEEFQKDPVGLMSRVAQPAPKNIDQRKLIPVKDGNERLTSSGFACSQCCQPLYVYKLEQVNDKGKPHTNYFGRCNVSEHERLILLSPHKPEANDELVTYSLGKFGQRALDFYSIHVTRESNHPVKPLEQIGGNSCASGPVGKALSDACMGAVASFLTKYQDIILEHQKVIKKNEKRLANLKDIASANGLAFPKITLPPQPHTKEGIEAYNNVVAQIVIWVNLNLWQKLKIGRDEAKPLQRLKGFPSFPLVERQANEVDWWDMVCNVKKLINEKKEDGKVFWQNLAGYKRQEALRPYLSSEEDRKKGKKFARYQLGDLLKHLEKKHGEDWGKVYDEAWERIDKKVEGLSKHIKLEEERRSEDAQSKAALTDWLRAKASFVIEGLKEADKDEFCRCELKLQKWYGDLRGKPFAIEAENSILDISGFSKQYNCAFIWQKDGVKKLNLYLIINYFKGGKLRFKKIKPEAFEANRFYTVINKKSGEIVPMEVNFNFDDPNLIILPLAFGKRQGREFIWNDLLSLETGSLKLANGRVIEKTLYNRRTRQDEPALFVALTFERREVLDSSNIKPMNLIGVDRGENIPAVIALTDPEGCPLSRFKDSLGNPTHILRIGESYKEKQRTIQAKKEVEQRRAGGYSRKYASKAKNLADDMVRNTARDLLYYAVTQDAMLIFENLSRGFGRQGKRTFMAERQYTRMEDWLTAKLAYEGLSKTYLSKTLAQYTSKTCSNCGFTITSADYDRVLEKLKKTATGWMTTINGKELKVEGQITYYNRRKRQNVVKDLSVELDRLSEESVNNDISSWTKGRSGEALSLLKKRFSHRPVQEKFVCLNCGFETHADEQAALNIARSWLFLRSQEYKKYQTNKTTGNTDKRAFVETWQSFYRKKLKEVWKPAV

T3: CasX variant 119 (synthetic construct)
T3 chain: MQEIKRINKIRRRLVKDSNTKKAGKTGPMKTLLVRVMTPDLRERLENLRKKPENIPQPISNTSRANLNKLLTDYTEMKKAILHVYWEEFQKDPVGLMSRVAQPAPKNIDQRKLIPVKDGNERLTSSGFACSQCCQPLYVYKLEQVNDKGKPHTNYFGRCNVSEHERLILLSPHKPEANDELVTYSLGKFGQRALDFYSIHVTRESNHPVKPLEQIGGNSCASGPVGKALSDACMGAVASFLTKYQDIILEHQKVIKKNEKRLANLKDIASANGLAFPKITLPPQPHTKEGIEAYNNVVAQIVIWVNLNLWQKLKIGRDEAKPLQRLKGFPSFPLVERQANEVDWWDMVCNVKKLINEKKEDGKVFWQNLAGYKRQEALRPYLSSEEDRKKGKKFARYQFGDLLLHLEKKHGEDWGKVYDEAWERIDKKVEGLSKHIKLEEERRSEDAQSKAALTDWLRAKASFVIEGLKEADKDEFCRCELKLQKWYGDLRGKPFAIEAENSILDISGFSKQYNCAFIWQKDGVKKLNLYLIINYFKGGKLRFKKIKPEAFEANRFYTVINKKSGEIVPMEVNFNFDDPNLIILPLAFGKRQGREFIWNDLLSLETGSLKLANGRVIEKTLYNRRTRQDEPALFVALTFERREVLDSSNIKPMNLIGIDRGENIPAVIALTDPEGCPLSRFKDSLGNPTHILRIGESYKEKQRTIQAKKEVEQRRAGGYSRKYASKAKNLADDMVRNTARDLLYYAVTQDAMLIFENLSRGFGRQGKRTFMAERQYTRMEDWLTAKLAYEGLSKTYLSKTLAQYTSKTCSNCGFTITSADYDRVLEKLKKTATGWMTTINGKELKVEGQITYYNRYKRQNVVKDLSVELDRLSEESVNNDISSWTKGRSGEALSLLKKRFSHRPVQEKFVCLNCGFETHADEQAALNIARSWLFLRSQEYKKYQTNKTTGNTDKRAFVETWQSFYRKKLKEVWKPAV

T4: CasX variant 491 (synthetic construct)
T4 chain: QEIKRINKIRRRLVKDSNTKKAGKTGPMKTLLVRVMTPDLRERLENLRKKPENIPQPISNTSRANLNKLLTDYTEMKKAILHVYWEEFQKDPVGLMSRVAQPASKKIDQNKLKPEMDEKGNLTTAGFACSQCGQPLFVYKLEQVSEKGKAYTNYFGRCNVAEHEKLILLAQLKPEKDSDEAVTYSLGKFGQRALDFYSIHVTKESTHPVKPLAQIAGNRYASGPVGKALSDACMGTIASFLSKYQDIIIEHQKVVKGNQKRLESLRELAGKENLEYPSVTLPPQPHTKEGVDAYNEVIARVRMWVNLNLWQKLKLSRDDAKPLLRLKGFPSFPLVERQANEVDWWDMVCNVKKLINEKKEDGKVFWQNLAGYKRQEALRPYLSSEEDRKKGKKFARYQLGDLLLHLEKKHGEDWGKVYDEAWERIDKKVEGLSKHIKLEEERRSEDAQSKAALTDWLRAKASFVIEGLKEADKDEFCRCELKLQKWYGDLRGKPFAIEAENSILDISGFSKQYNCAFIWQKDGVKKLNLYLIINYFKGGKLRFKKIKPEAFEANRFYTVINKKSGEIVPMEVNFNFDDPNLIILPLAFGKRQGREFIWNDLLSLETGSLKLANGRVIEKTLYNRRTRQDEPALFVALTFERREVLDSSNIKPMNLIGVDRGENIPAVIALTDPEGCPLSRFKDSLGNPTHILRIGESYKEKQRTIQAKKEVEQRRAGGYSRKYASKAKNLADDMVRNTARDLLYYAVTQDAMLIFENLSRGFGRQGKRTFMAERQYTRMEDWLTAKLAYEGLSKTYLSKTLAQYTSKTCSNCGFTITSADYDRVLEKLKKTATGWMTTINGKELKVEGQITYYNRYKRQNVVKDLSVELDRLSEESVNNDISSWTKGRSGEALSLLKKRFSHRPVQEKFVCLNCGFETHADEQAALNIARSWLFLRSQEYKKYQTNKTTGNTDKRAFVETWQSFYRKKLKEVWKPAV

B1: gRNA scaffold 174 + spacer 7.37 ; 7.37 CTC PAM target (ssRNA ; dsDNA)
RNA: ACUGGCGCUUUUAUCUGAUUACUUUGAGAGCCAUCACCAGCGACUAUGUCGUAGUGGGUAAAGCUCCCUCUUCGGAGGGAGCAUCAAAGGGGCCGAGAUGUCUCGCUCC
DNA 1: TGAAGCTGACAGCACTCGGGCCGAGATGTCTCGCTCCGTGGCCTTAGCTGTGCTCGCGCT
DNA 2: AGCGCGAGCACAGCTAAGGCCACGGAGCGAGACATCTCGGCCCGAGTGCTGTCAGCTTCA
B2: gRNA scaffold 174 + spacer 7.37 ; 7.37 TTT PAM target (ssRNA ; dsDNA)
RNA: ACUGGCGCUUUUAUCUGAUUACUUUGAGAGCCAUCACCAGCGACUAUGUCGUAGUGGGUAAAGCUCCCUCUUCGGAGGGAGCAUCAAAGGGGCCGAGAUGUCUCGCUCC
DNA 1: TGAAGCTGACAGCATTTGGGCCGAGATGTCTCGCTCCGTGGCCTTAGCTGTGCTCGCGCT
DNA 2: AGCGCGAGCACAGCTAAGGCCACGGAGCGAGACATCTCGGCCCAAATGCTGTCAGCTTCA
B3: gRNA scaffold 174 + spacer 7.37 ; 7.37 GTC PAM target (ssRNA ; dsDNA)
RNA: ACUGGCGCUUUUAUCUGAUUACUUUGAGAGCCAUCACCAGCGACUAUGUCGUAGUGGGUAAAGCUCCCUCUUCGGAGGGAGCAUCAAAGGGGCCGAGAUGUCUCGCUCC
DNA 1: TGAAGCTGACAGCAGTCGGGCCGAGATGTCTCGCTCCGTGGCCTTAGCTGTGCTCGCGCT
DNA 2: AGCGCGAGCACAGCTAAGGCCACGGAGCGAGACATCTCGGCCCGACTGCTGTCAGCTTCA
B4: gRNA scaffold 174 + spacer 7.37 ; 7.37 ATC PAM target (ssRNA ; dsDNA)
RNA: ACUGGCGCUUUUAUCUGAUUACUUUGAGAGCCAUCACCAGCGACUAUGUCGUAGUGGGUAAAGCUCCCUCUUCGGAGGGAGCAUCAAAGGGGCCGAGAUGUCUCGCUCC
DNA 1: TGAAGCTGACAGCAATCGGGCCGAGATGTCTCGCTCCGTGGCCTTAGCTGTGCTCGCGCT
DNA 2: AGCGCGAGCACAGCTAAGGCCACGGAGCGAGACATCTCGGCCCGATTGCTGTCAGCTTCA

Key:
Experiment in all cases: cleavage_in_vitro
CasX 2 (reference CasX) = biological target: T1, CasX 2 (reference CasX)
CasX variant 438 = biological target: T2, CasX variant 438
CasX variant 119 = biological target: T3, CasX variant 119
CasX variant 491 = biological target: T4, CasX variant 491

Binder	activity (CasX 2 (reference CasX)) [min⁻¹]	activity (CasX variant 438) [min⁻¹]	activity (CasX variant 119) [min⁻¹]	activity (CasX variant 491) [min⁻¹]
B1	0.00929	0.212	0.303	–
B2	–	–	–	1.33
B3	0.00375	–	0.0864	–
B4	0.0187	0.408	0.54	–
